In patent publication US20260263521A1, “ANTI-CD200R1 ANTIBODY AND USE THEREOF” (AIMED BIO INC., priority 2023, published 2026):
Numbering of substitutions follows the chain as printed. Numbers in names are those of the source.

What was measured:
[1] = target: T1, human CD200R1 (Homo sapiens, UniProt Q8TD46); assay: ELISA binding to human CD200R1; conditions: for binding ability to human CD200R1 compared to parent: ELISA, Example 14; for affinity compared with P001018 clone: scFv mutants, antigen binding (ELISA) and cell binding (FACS)
T1 sequence (Q8TD46 25-348): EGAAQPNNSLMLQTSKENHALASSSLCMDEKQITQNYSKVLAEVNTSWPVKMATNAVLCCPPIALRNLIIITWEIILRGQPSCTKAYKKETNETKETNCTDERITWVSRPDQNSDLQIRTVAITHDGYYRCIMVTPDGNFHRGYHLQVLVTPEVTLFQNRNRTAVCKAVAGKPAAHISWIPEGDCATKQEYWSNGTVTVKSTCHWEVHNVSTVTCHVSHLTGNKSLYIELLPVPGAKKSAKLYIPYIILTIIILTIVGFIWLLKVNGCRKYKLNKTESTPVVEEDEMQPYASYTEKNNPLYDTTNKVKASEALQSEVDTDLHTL
Experimental: 96-well plates were coated with human CD200R1 (R&D systems, 3414-CD) and mouse CD200R1 protein (R&D systems, 2554-CD) at a concentration of 2 μg/mL at 4° C. for 16 hours and then were blocked with 3% skim milk. The result was treated with the antibodies at concentrations of 300 nM, 60 nM, 12 nM, 2.4 nM, 0.48 nM, 0.096 nM, and 0.0192 nM, and reacted at room temperature for 2 hours.
The result was washed with PBST and distilled water, the samples were bound with a goat-derived HRP-conjugated anti-human antibody (Invitrogen, 31482, Goat anti-Human IgG F(ab′)2 Secondary Antibody, HRP) for 1 hour at room temperature, and then washed again with PBST and distilled water. Color was developed with a TMB substrate solution (Thermo Scientific, 34029, 1-Step™ TMB-ELISA Ultra Substrate Solution). The color reaction was stopped with stop solution (Invitrogen, SS04, ELISA Stop Solution). The absorbance was measured at an optical density of 450 nm.

[2] = test system: monkey CD200R1; assay: ELISA binding to monkey CD200R1; conditions: Example 14
From the text: Therefore, the LC D51 and LC D92 sequences were not substituted during the optimization process. However, since LC N30 and LC N31 can play an important role in the specific binding of antibodies as paratopes, the sequences were substituted and optimized. Through rational design, LC S52 and LC S94 were substituted with K and R, respectively, to derive P001009v1, and LC S52 and LC D93 were substituted with K and R, respectively, to derive P001009v2. Further, P001009v3, in which LC N30 was substituted with S, and P001009v4, in which LC N31 was substituted with K, were derived and produced, and the binding ability to human, mouse, and monkey CD200R1 was analyzed by ELISA (FIG. 15). […] Both […] and variants thereof had very weak binding ability to mouse CD200R1 at concentrations up to 300 nM.

[3] = target: T1, human CD200R1; assay: SPR binding kinetics, human CD200R1; conditions: hCD200R1-his captured on anti-His CM5 chip, 1:1 Langmuir fit
Experimental: (§1) The CD200R1-specific binding ability of the antibodies (P001009 wt, P001009 v1, P001009 v2, P001009 v3, P001009 v4) selected in Example 14 was analyzed using surface plasma resonance (SPR). For the experiment, 30 μg/mL of an anti-histidine antibody was conjugated to a CM5 biacore chip via an amine bond while allowing to flow at 10 μl/min (10,000 RU). Then, 0.25 μg/mL of human or cynomolgus CD200R1 with dual His-tags was captured onto the completed chip for 60 seconds, and the binding ability of each antibody was analyzed. All experiments were performed by association of antibodies for 120 seconds and dissociation of antibodies for 600 seconds. The resulting graphs were fitted using a 1:1 Langmuir binding kinetic model (FIG. 16), and the kinetics of each antibody were calculated.

[4] = test system: cynomolgus CD200R1; assay: SPR binding kinetics, cynomolgus CD200R1; conditions: cynomolgus CD200R1-his captured on anti-His CM5 chip, 1:1 Langmuir fit
Experimental: as §1

[5] = target: T2, CD200R1 on HH (CRL-2105) cells (Homo sapiens, UniProt Q8TD46); assay: Cell binding assay (flow cytometry), HH cells; format: cell-based; conditions: HH cells; 500 nM; IgG1 form
T2 construct: HH (CRL-2105) cells, which endogenously express CD200R1; host or cells: HH (CRL-2105) cells
T2 sequence (Q8TD46 25-348): T1 sequence (Q8TD46 25-348)
Experimental: (§2) The binding ability of the antibodies identified using unique multifaceted antibody discovery technology was identified in HH (CRL-2105) cells, which endogenously express CD200R1, and Jurkat-CD200R1 cells (Source: DiscoverX), which were generated by intranuclear injection of CD200R1 cDNA.
(§3) HH and Jurkat-CD200R1 cells were maintained in RPMI 1640 medium supplemented with 10% heat-inactivated FBS and 1% Penicillin/Streptomycin (P/S). The cells were washed by centrifugation at 130 g for 5 minutes. The cells were seeded onto 96-well round-bottom plates (SPL, #34296) at a density of 1×10^5 cells/well in Flow cytometry staining buffer (Invitrogen, #00-4222-26) or FACS buffer. The cells were treated with all 16 substances and the positive control LY3454738 (US 2020/0087395, I-4P, at Eli Lilly) a concentration of 500 nM in the IgG1 form. After incubation for 1 hour at 4° C., the cells were treated with Alexa-647 Goat anti-human IgG (H+L) cross-adsorbed secondary antibody (Invitrogen, #A21445) and incubated at 4° C. for an additional 30 minutes. […]
(§4) Cell-binding ability was determined in the same manner as in Example 12. For the six active substances primarily selected in Example 12, the isotype was changed to IgG4 or the LALAPG gene was mutated, and binding activity was determined in the two cell lines mentioned above.
(§5) Binding ability was determined in HH, an endogenous T cell line with high CD200R1 expression, and two additional overexpressing cell lines: U937-CD200R overexpressing cells, generated by intranuclear injection of human CD200R1 CDNA into the monocytic cell line U937 (CRL-1593.2) (Source: UMC Utrecht, the Netherlands) and Jurkat-CD200R overexpressing cells, were also cells engineered using a similar method.
(§6) All cell lines were maintained in RPMI 1640 medium supplemented with 10% heat-inactivated FBS and 1% penicillin/streptomycin (P/S) and cell binding was determined in the same manner as in Example 12. […]
(§7) Specific binding ability was determined using P001009 WT and antibody-optimized mutants, P001009v1, P001009v2, P001009v3, and P001009v4. […]

[6] = target: T3, CD200R1 on Jurkat-CD200R1 cells (Homo sapiens, UniProt Q8TD46); assay: Cell binding assay (flow cytometry), Jurkat-CD200R1 cells; format: cell-based; conditions: Jurkat-CD200R1 cells; 500 nM; IgG1 form
T3 construct: host or cells: Jurkat
T3 sequence (Q8TD46 25-348): T1 sequence (Q8TD46 25-348)
Experimental: as §2, §3, §4, §5, §6, §7

B1: P001009v2: P001009 variant, LC S52 and LC D93 substituted with K and R; VH SEQ ID NO: 79 (antibody, V domains shown)
VH: EVQLLESGGGLVQPGGSLRLSCAASGFTFSSYDMSWVRQAPGKGLEWVSWISHGGGSIYYADSVKGRFTISRDNSKNTLYLQMNSLRAEDTAVYYCARDAPAYSAPLFDYWGQGTLVTVSS
VL: QSVLTQPPSASGTPGQRVTISCSGSSSNIGNNAVNWYQQLPGTAPKLLIYYDKNRPSGVPDRFSGSKSGTSASLAISGLRSEDEADYYCAAWDRSLSGYVFGGGTKLTVL
B1 was tested, and the “binding ability to human CD200R1 compared to parent” value [1] was “reduced”, the “binding ability to monkey CD200R1 compared to parent” value [2] was “significantly improved” and the Ka [3] was 7.52e+06 M⁻¹ s⁻¹. It also gave a Ka [4] of 2.82e+06 M⁻¹ s⁻¹.

B2: P001009v4: P001009 variant, LC N31 substituted with K; VH SEQ ID NO: 79 (antibody, V domains shown)
VH: B1 VH
VL: B1 VL with N32K, K53S, R94D
B2 was tested, and the “binding ability to human CD200R1 compared to parent” value [1] was “reduced”, the “binding ability to monkey CD200R1 compared to parent” value [2] was “improved” and the Ka [3] was 6.74e+06 M⁻¹ s⁻¹. The Ka [4] was 3.71e+06 M⁻¹ s⁻¹.

B3: ch1F1: clone discovered using hybridoma technology (1F1), tested in IgG1 form (antibody, V domains shown)
VH: QVQLQQPGAEFVKPGAPVKLSCKASGYTFTSYWMNWVKQRPGRGLEWIGRIDPADSEIHYNQKFKDKATLTVDKSSSTAYIQFSSLTSEDSAVYYCARSGGWLPGFAYWGQGTLVTVSA
VL: ENVLTQSPAIMSASPGEKVTMTCSASSSLIYMHWYQQKSSTSPKLWIYDTSKLASGVPGRFSGSGSGNSYSLTINSMEAEDVATYYCFQGSGYPLMYTFGGGTKLEIK
For B3, the “cell binding ability” value [5] was “significant binding ability” and the “cell binding ability” value [6] was “significant binding ability”.

B4: H3-Y102K: P001018 scFv mutant, SEQ ID NO: 164 (protein)
scFv: QVQLVQSGAEVKKPGASVKVSCKASGYTFTSYVMHWVRQAPGQGLEWMGYINPYNDDTNYNEKFKGRVTMTRDTSTSTVYMELSSLRSEDTAVYYCAREDYYGSRWGKWGQGTLVTVSSGGGGSGGGGSGGGGSDIVLTQSPASLAVSPGQRATITCRASKSVSTSGYSYMHWYQQKPGQPPKLLIYLASNLESGVPARFSGSGSGTDFTLTINPVEANDTANYYCQHSRELLTFGQGTKVEIK
B4 was tested, and the “affinity compared with P001018 clone” value [1] was “enhanced affinity”.

B5: L3-R92S: P001018 scFv mutant, SEQ ID NO: 167 (protein)
scFv: B4 scFv with K108Y, R230S
For B5, the “affinity compared with P001018 clone” value [1] was “enhanced affinity”.

B6: L3-T96R: P001018 scFv mutant, SEQ ID NO: 171 (protein)
scFv: B4 scFv with K108Y, T234R
B6 was tested, and the “affinity compared with P001018 clone” value [1] was “enhanced affinity”.

B7: H3-Y102T: P001018 scFv mutant, SEQ ID NO: 165 (protein)
scFv: B4 scFv with K108T
With B7 the “affinity compared with P001018 clone” value [1] was “enhanced affinity”.

B8: L3-L94S: P001018 scFv mutant, SEQ ID NO: 168 (protein)
scFv: B4 scFv with K108Y, L232S
In the case of B8, the “affinity compared with P001018 clone” value [1] is reported as “enhanced affinity”.

B9: L3-L94H: P001018 scFv mutant, SEQ ID NO: 169 (protein)
scFv: B4 scFv with K108Y, L232H
B9 was tested, and the “affinity compared with P001018 clone” value [1] was “enhanced affinity”.

B10: L3-R92H: P001018 scFv mutant, SEQ ID NO: 166 (protein)
scFv: B4 scFv with K108Y, R230H
In the case of B10, the “affinity compared with P001018 clone” value [1] is reported as “enhanced affinity”.

B11: L3-L95D: P001018 scFv mutant, SEQ ID NO: 170 (protein)
scFv: B4 scFv with K108Y, L233D
In the case of B11, the “affinity compared with P001018 clone” value [1] is reported as “enhanced affinity”.
